Source: article PMC2928259 (Biochemistry, 2010)

Molecular target: T1, Cbf5 (Pyrococcus furiosus, UniProt Q7LWY0 1-340)
T1 sequence (looked up): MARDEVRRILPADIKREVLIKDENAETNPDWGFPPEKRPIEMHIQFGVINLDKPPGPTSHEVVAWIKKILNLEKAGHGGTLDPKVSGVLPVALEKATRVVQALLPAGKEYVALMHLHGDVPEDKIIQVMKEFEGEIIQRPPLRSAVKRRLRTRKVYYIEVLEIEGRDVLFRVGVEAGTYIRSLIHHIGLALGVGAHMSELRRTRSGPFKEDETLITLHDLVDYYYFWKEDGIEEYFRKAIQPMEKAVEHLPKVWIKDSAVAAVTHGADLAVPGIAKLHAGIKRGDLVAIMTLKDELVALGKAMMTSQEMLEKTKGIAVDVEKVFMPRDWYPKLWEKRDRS
Experiment: crystal structure

- binding result: binds
B1: Nop10 (natural protein, Pyrococcus furiosus)
chain: MRFRIRKCPKCGRYTLKEVCPVCGEKTKVAHPPRFSPEDPYGEYRRRWKREVLGIGRKEK
